# Data taken from the nanobody polyreactivity screen of Harvey et al. (2022).
# Test: yeast display, Sf9 membrane polyspecificity reagent, FACS + sequencing; frameworks hold sequencing errors
# Outline: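 A nanobody's polyreactivity label depends on the gate it was sorted from. Yeast display cells were stained with 10% biotinylated, detergent-solubilized Sf9 membrane reagent for 1 hour at 4 °C, enriched on streptavidin microbeads and sorted by FACS. The low and high (top ~1%) gates were set on anti-HA fluorescence for expression and streptavidin fluorescence for reagent binding.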
row,Sequence,polyreactivity (PSR sort gate)
1,QVQLVESGGGLVQAGGSLRLSCAASGSIFTPNAMGWYRQAPGKERELVAAISSSSDRTYYADSVKGRFTLSRDNAKNTVYLQMNSLKPEDTAVYYCAAYAQKRYYWGQGTQVTVSS,high polyreactivity
2,QVQLVESGGGLVQAGGSLRLSCAASGSIFTPNTMGWYRQAPGKEREFVAAINTSGSTNYADSVKGRFTISRDNAKNTVYLQLNSLKPEDTAVYYCAAGIVVTGYDYWGQGTQVTVSS,low polyreactivity
3,QVQLVESGGGLVQAGGSLRLSCAASGSIFTPYAMGWYRQAPAKERELVAANTSSGGSTNYPDSVKGRFTISRDKAKSTVYLQMNSLKPEDTAVYYCAADQDLGYPLFDYWGQRTQVTVSS,low polyreactivity
4,QVQLVESGGGLVQAGGSLRLSCAASGSIFTPYAMGWYRQAPGKERELVAAISRSGGSTYYADSVKGRFTISRDNAKNTVYLQMNSLKPEDTAVYYCAVVVYDIYGYESDYWGQGTQVTVSS,low polyreactivity
5,QVQLVESGGGLVQAGGSLRLSCAASGSIFTPYAMGWYRQAPGKERELVATISWSGGRTYYADSVKGRFTISRDNAMYTVYLQMYSLKPEDTAVYYCAARGYSSEYDYWGQGTQVTVSS,high polyreactivity
6,QVQLVESGGGLVQAGGSLRLSCAASGSIFTPYVMGWYRQAPGKERELVAAISKRGTRTYYADSVTGRFTISRDNAKNTVYFQMNSLKPEDTAVYYCNAAVDYGSEHDYWGQGTQVTVSS,high polyreactivity
7,QVQLVESGGGLVQAGGSLRLSCAASGSIFTQYAMGWYREATGKERELVAAITSGGSTYADSVKGRFTISRDNANNTVYLQMNSLKPEDTAVYYCATQYSYRGVTFYYWGQGTQVTVSS,low polyreactivity
8,QVQLVESGGGLVQAGGSLRLSCAASGSIFTRNAMGWYRQAPGKERELVAAISRGGGTNYADSVKGRFTISRDNAKNTVYLQMNSLKPEDTAVYYCAARVGYPYPAGYDYWGQGTQVTVSS,high polyreactivity
9,QVQLVESGGGLVQAGGSLRLSCAASGSIFTRNAMGWYRQAPGKERELVAAISRGGGTNYADSVKGRFTISRDNAKNTVYLQMNSLKPEDTAVYYCAKGWLPNGIPTYFRPYGLDYWGQGTQVTVSS,high polyreactivity
10,QVQLVESGGGLVQAGGSLRLSCAASGSIFTRYTMGWCRQAPGKERELVAVISDSSGRTYYADTVKGRFTISRDNGKNTDYLQMNSLKPEDPAVYYCAAEYSDIYEYWGQGTQVTVSS,low polyreactivity
11,QVQLVESGGGLVQAGGSLRLSCAASGSIFTRYTMGWYRQAPGKERELVAVISDSSGRTYYADSVKGRFTISRDNGKNTVYLQMNSLKPEDTAVYYCAAEYSDIYEYWGQGTQVTVSS,low polyreactivity
12,QVQLVESGGGLVQAGGSLRLSCAASGSIFTSYAMGWSRQAPGKERELVAAITSGGSTNYADSVKGRFTISRDNAKNTVYLQMNSLKPEDTAVYYCNAKWYWYLTRDAYRYRYTYDYWGQGTQVTVSS,low polyreactivity
13,QVQLVESGGGLVQAGGSLRLSCAASGSIFTSYAMGWYRQAPGKERELVAAITSTGGSTYYADSVKGRFTISRENAKNTVYLQMNSLKPEDTAVYYCNADGGTPYDYWGQGTQVTVSS,low polyreactivity
14,QVQLVESGGGLVQAGGSLRLSCAASGSIFTTNAMGWYRQAPGKERELVAAISSRGTSTYYADSVKGRFTISRDNAKNTVYLQMNSLKPEDTAVYYCPNPYGYWGQGTQVTVSS,high polyreactivity
15,QVQLVESGGGLVQAGGSLRLSCAASGSIFTTNAMGWYRQAPGKERELVARIDRAGSTYYADSVKGRFTISRDNAKNTVYLQMNSLKPVDTAVYYCAVEAVLSRPYATKFDYWGQGTQVNVSS,low polyreactivity
16,QVQLVESGGGLVQAGGSLRLSCAASGSIFTTNAMGWYRQAPGKERELVSAISSRGGSTYYADSVKGRFTISRDNAKNTVYLQMNSLKPEDTAVYYCAARYRWPIPGTQYEYWGQGTQVTVSS,low polyreactivity
17,QVQLVESGGGLVQAGGSLRLSCAASGSIFTVYAMGWYRQAPGKERELVAAIRRTGSRTYYADSVKGRFTISRDNAKNTVYLQMNSLKPEDTAVYYCAADGWYDRRSVRLNYWGQGTQVTVSS,high polyreactivity
18,QVQLVESGGGLVQAGGSLRLSCAASGSIFTVYTMGWYRQAPGKERELVAAINSRGGTTYYADSVKGRFTISRDNAKNTVYLQMNSLKPEDTAVYYCAAKQRPKSYGPGHYYWGQGTQVTVSS,high polyreactivity
19,QVQLVESGGGLVQAGGSLRLSCAASGSIFTWYAMGWYRQAPGKERELVAAISEDGGSTYYADSVKGRFTISRDNAKNTVYLQMNSLKPEDTAVFYCATPVASVTGYDYWGQGTQVTVSS,low polyreactivity
20,QVQLVESGGGLVQAGGSLRLSCAASGSIFTWYAMGWYRQAPGKERELVAAITRGGSTYADSVKGRFTISRDNAKNTVYLQMNSLKPEDTAVYYCNAVYGVYDFNYWGHGTQVTVSS,low polyreactivity
21,QVQLVESGGGLVQAGGSLRLSCAASGSIFTYNAMGWYREAPGKERELVAAIRLSGGSTYYADSVKGRFTISRDNAKNTVYLQMNSLKPEDTAVYYCAAESAAASAVYSVEYDYWGQGTQVTVSS,low polyreactivity
22,QVQLVESGGGLVQAGGSLRLSCAASGSIFTYYAMGWYRQAPGKERELVAAISYSGGTTYYADSVKGRFTISRDNAKNTVYLQMNSLKPEDTAVYYCNVDADYESQWLSVGYDYWGQGTQVTVSS,low polyreactivity

row,Sequence,polyreactivity (PSR sort gate)
1,QVQLVESGGGLVQAGGSLRLSCAASGSIFVDNAMGWYRQAPGKERELVAAINWSGGSTYYADSVKGRFTISRDNAKNTVYLQMNSLKQEDTAVYYCNAARPVQTWDEQSWYDYWGQGTQVTVSS,low polyreactivity
2,QVQLVESGGGLVQAGGSLRLSCAASGSIFVDYAMGWYRQAPGKERELVAAISSGGSTNYADSVKGRFTISRDNAKNTVYLQMNSLKPEDTAVYYCAADGSYGYDYWGQGTQVTVSS,low polyreactivity
3,QVQLVESGGGLVQAGGSLRLSCAASGSIFVDYAMGWYRQAPGKERELVASISGGGSSTYYADSVMGRFTISRDNAKNTVYLQMNSLKPEDTALYYCARDGVRSSSEYDYWGQGTQVTVSS,low polyreactivity
4,QVQLVESGGGLVQAGGSLRLSCAASGSIFVENAMGWYRQAPGEERELVAAISSSGDSTYYADSVKGRFTISRDNAKNTVYLQINSLKPEDTAVYYCNRRRPRYYWGQGTQVTVSS,high polyreactivity
5,QVQLVESGGGLVQAGGSLRLSCAASGSIFVEYAMGVYREAPGKERELVATINLSAGSTYYADSVKGRFTISRDNAMNTGYLQMNRLKPEDTAVYYCAALYYWDQPQLEFSYLGQGTQVTVSS,low polyreactivity
6,QVQLVESGGGLVQAGGSLRLSCAASGSIFVEYDMGWYIQAPGKERELVADISGTGNTYYADSVKGRFTISRDNAQNTVYLQMNSLKPEDTSVYYCAAGTYFTNYWSPFVWYDYWGQGTQVTVSS,high polyreactivity
7,QVQLVESGGGLVQAGGSLRLSCAASGSIFVFYAMGWYRQAPGKERELVAAIDVSDGSTYYADSVKGRFTISRDNAKNTVYLQMNSLKPEDTAVYYCATYVVTYYWWYTYDYWGQGTQVTVSS,low polyreactivity
8,QVQLVESGGGLVQAGGSLRLSCAASGSIFVGNAMGWSRQAPGKERELVAAISLSGGSTYFADSVKGRFTISRDNAKNTVYLQMNSLKPDDTAVYYCAAQTKPASRVTYYWYYYWGQGTQVTVSS,low polyreactivity
9,QVQLVESGGGLVQAGGSLRLSCAASGSIFVGNAMGWYRQAPGKERELVAAISSSGGSTYYADSVKGRFTISRDNAKNTVYLQMNSLKPEDTAVYYCAADTYSTSVYYYWGQGTQVTVSS,low polyreactivity
10,QVQLVESGGGLVQAGGSLRLSCAASGSIFVGNAMGWYRQAPGKERELVAAITRSGGRTYYADSVKGRFTISRDNAKNTVYLQMNSLKPEDTAVYYCNAVYWTVYSREYDYWGQGTQVTVSS,high polyreactivity
11,QVQLVESGGGLVQAGGSLRLSCAASGSIFVGNAMGWYRQAPGKERELVAGISKSGSRTYYADSVKGRFTISRDNAKNTVYVQMNSLKPEDTSVYYCAAGKVAYYTLDYYWGQGTQVTVSS,high polyreactivity
12,QVQLVESGGGLVQAGGSLRLSCAASGSIFVGNAMGWYRQAPGKEWELVAAISAGGSTYYADSVKGRFTISRDNAKNTVYLKLNSLKTEDTAVYYCAAYYVRRYSSRPKDDYWGQGTQVTVSS,low polyreactivity
13,QVQLVESGGGLVQAGGSLRLSCAASGSIFVGYAMGWYRQAPGKERELVAAIRSGGSTKYADSVKGRFTISRDNAKNTVYLQMNSLKAEDTAVYYCNVEVHPYYWVDNFHRFPVLHNYWGQGTQVTVSS,low polyreactivity
14,QVQLVESGGGLVQAGGSLRLSCAASGSIFVGYAMGWYRQAPGKERELVAAISWSGDSTYYADSVKGRFTISRDNAKNTVYLQMNSLKPEDTAVYYCAVDYAEIGPRREVEYDYWGQGTQVTVSS,low polyreactivity
15,QVQLVESGGGLVQAGGSLRLSCAASGSIFVGYAMGWYRQAPGKERELVATISSSATSTYYADSVKGRFTISRDNATNTVYLQMNSLKPEDTAVYSCAVERDYGWPIYIRWHFDYWGQGTQVTVAS,low polyreactivity
16,QVQLVESGGGLVQAGGSLRLSCAASGSIFVGYARGWYRQAPGKERELVAAISFSGGSTYYADSVKGRFTLSRDNAKNTVYLQMNSLKPEDTAVYYCNAYSWYNGIGNYDYWGQGTQVTVSS,low polyreactivity
17,QVQLVESGGGLVQAGGSLRLSCAASGSIFVGYDMGWYRQAPGKARELVAAITRDGDTNYADSVKGRFTISRDNAKNTVYLQMNSLKPEDTAVYYCAADRWLYSWFFNYDQGDYWGQGTQVTVSS,low polyreactivity
18,QVQLVESGGGLVQAGGSLRLSCAASGSIFVGYDMGWYRQAPGKERELVASINGGDSTNYADSVKGRFTISRDNAKNTVYLQMNSLKPEDTAVYYCAKDVTYTDEYDYWGQGTQVTVSS,low polyreactivity
19,QVQLVESGGGLVQAGGSLRLSCAASGSIFVGYDMGWYRQAPGKEREWVAAITSSGGGSTYYADSVKGRFTISRDNAKNTVYLQMNSLKPEDTAVYYCAARTSLWWFLKYDYWGQGTQVTVSS,low polyreactivity
20,QVQLVESGGGLVQAGGSLRLSCAASGSIFVGYTMGWYRQAPGKETELVADITYNGGTTYYADSVKGRFTISRDNAKNTVYLQMNSLKPEETAVYYCAADYYYACFPVYYWGQGTQVTVSS,high polyreactivity
21,QVQLVESGGGLVQAGGSLRLSCAASGSIFVGYVMGWYRQAPGKERELVAAISRSGGRTYYADSVKGRFTISRDNAKNTVYLQMNSLKPEDTAVYYCNADVIDLDYDYWGQGTQVTVSS,low polyreactivity
